Experimental data as given in patent US20180280528A1, “ANTIFOLATE CONJUGATES FOR TREATING INFLAMMATION” (ENDOCYTE, INC., priority 2015, published 2018).

Legend:
[1] = Release of aminopterin in rat hepatic cytosol; type: in vitro ADME; conditions: 5% rat liver cytosol, 1 hour; for pH dependence of aminopterin release from the conjugate: pH 4.5, 6.0, 7.4, 37° C.
Method: (§1) EC2319 and EC1669 were incubated in 5% rat, dog, and human hepatic cytosol at different pH's to look at release of aminopterin from these conjugates. Liver cytosols from male Sprague-Dawley rats (Lot No. 1110428), male beagle dogs (Lot no. 1310024), and male humans (Lot No. 0710493), all containing 10 mg/mL protein, were obtained from Xenotech LLC (Lenexa, Kans.). These were diluted 20× in either 0.5 M sodium acetate buffer, pH 4.5, 0.5 M sodium acetate buffer, 6.0, or 0.5 M potassium phosphate buffer, pH 7.4 in a final volume of 500 μL. Reactions were initiated by the addition of 1 μL of either EC2319 or EC1669 and the reaction mixtures incubated at 37° C. for 1 hour. At the end of the incubation, a 100 μL aliquot was withdrawn into a cluster tube and the reaction was terminated by the addition of 5 μL of stabilizer solution (containing 8.5 mg/ml N-Maleoyl-β-alanine, 20 mg/mL mannitol and 0.075% acetic acid) and 100 μL of acetonitrile containing d5-aminopterin. The tubes were vortexed and then centrifuged at 4000 rpm for 10 minutes (Eppendorf centrifuge 5810R). 150 μL of the supernatant was transferred to 96-well plates and the acetonitrile evaporated off under nitrogen at 35° C. for 5 minutes. The extract was diluted with 50 μL of mobile phase A. The plate was vortexed on a VX-2500 multi-tube vortexer (VWR International, Radnor, Pa.) and the extract analyzed by LC-MS/MS.

[2] = Release of aminopterin in dog hepatic cytosol; type: in vitro ADME; conditions: 5% dog liver cytosol, 1 hour; for pH dependence of aminopterin release from the conjugate: pH 4.5, 6.0, 7.4, 37° C.
Method: as §1

[3] = tested on: Rat adjuvant arthritis (AIA); experiment: Rat adjuvant arthritis (AIA) treatment studies; type: in vivo
Method: Female Lewis rats (175-200 g) were purchased from Harlan Sprague Dawley (Indianapolis, Ind.) and allowed to acclimate for 1 week. Generally, rats were fed a folate-deficient diet (Harlan Teklad) for 9-10 days prior to arthritis induction.
Rat adjuvant arthritis (AIA) was induced by intradermal inoculation (at the base of tail) of 0.45-0.46 mg of heat-killed Mycobacteria butyricum (BD Diagnostic Systems, Sparks, Md.) in 100 μL light mineral oil (Sigma). […] During the course of disease development, animals were weighed at least 3 times a week. Paw edema (degree of arthritis) were scored 3 times a week as follows: 0=no edema or arthritis; 1=swelling in one type of joint; 2=swelling in two types of joint; 3=swelling in three types of joint; 4=swelling of the entire paw. A total score for each rat is calculated by adding up the scores for each of the four paws, giving a maximum of 16 per animal.
On the first day of treatment, rats with desired arthritis scores were distributed evenly across the control and treatment groups (n=5). […] All compounds and conjugates were administered subcutaneously (s.c.) starting 9 days after arthritis induction with biweekly (BIW, Mondays and Thursdays) or once-a-week (QW, Mondays) dosing for two consecutive weeks. At the completion of each study (˜4 days after the last treatment), rats were euthanized by CO2 asphyxiation and processed for paw weight (cut at the hairline) and spleen weight.
The rat AIA model resembles many characteristics of human rheumatoid arthritis and it is very aggressive. […] The animals in the AIA control group were left untreated.

[4] = Plasma protein binding by ultrafiltration, rat plasma; type: in vitro ADME; conditions: 500 nM
Method: (§2) EC2319 and EC1669 plasma protein binding was evaluated by ultra filtration using VWR 30K MWCO modified PES filters. 250 μL of 500 nM EC2319 or EC1669 in K3EDTA plasma incubated at 37° C. was added to the upper filter vessel. 50 μL was immediately removed as the donor plasma sample and aliquoted into a clean 1.2 mL plate. […] An aliquot of […] plasma ultrafiltrate was then added to the 1.2 mL plate as the receiver sample. To each plasma sample, 50 μL of plasma ultrafiltrate was added, and each ultrafiltrate sample received 50 μL of plasma to mitigate matrix effects. N-Maleoyl-β-alanine, mannitol, and acetic acid were added at the end of each experiment to stabilize the samples prior to LC-MS/MS analysis.

[5] = Incubation with RAW264.7 cell lysates; type: in vitro ADME, mouse; conditions: RAW264.7 lysate, pH 4.5, 37° C., 2 hours
Method: (§3) To 100 μL AIA rat macrophage, RAW264.7 or THP-1 FRβ cell lysates (each containing 10 million cells/mL 0.1 M sodium acetate, Ph 4.5) was added 2 μL of a 50 μM solution of EC2319 or EC1669 (Endocyte, Inc.). The solutions were incubated at 37° C. in a heat block (VWR International, Radnor, Pa.) for 2 hours. The reaction was terminated by the addition of 5 µL of stabilizer solution and 100 μL of acetonitrile containing d5-aminopterin (Endocyte, Inc.). The rest of the workup is as described above.

[6] = Plasma protein binding by ultrafiltration, human plasma; type: in vitro ADME; conditions: 500 nM
Method: as §2

[7] = Plasma protein binding by ultrafiltration, dog plasma; type: in vitro ADME; conditions: 500 nM
Method: as §2

[8] = Incubation with AIA rat macrophage cell lysates; type: in vitro ADME; conditions: AIA rat macrophage lysate, pH 4.5, 37° C., 2 hours
Method: Prior to immunization with adjuvant, female Lewis rats were fed a folate-deficient diet (Harlan Teklad, Indianapolis, Ind.) for approximately 10 days to reduce serum folate competition from high-folate-containing regular rodent chow. The rats were then inoculated intradermally (at the base of tail) with 0.5 mg heat-killed M. butyricum (BD Diagnostic Systems, Franklin Lakes, N.J.) in 100 μL light mineral oil (Sigma-Aldrich, St Louis, Mo., USA). The rats were then allowed to develop arthritis scores between 3 and 4 as described in Lu et al. (Arthritis Research & Therapy 2011, 13:R56). After rats developed severe joint inflammation, AIA rat peritoneal cells were isolated, plated, and whole cell lysates were prepared as described above with the exception that the lysates were resuspended in 0.1 M sodium acetate buffer, pH 4.5, to make a concentration of cell lysates equivalent to 10 million cells/mL of 0.1 M sodium acetate buffer, pH 4.5.
as §3, with “The rest of the workup is as described above.” left out

[9] = Release of aminopterin in human hepatic cytosol; type: in vitro ADME; conditions: 5% human liver cytosol, 1 hour; for pH dependence of aminopterin release from the conjugate: pH 4.5, 6.0, 7.4, 37° C.
Method: as §1

SMILES	pH dependence of aminopterin release from the conjugate [1]	pH dependence of aminopterin release from the conjugate [2]	body weight ([3]; Study 2, 500 nmol/kg, BIW)	residual disease ([3]; Study 2, 500 nmol/kg, BIW)	anti-arthritic activity ([3]; Study 3, 500 nmol/kg, BIW)	body weight ([3]; Study 3, 500 nmol/kg, BIW)	plasma protein binding [4]	aminopterin release [5]	plasma protein binding [6]	plasma protein binding [7]	aminopterin release [8]	pH dependence of aminopterin release from the conjugate [9]	magnitude of aminopterin release ([1]; 37° C.)	magnitude of aminopterin release ([2]; 37° C.)	alleviating AIA symptoms (arthritis score, paw weight, spleen weight) ([3]; Study 1, 1000 nmol/kg, QW, s.c., two consecutive weeks)	anti-arthritic activity with concurrent EC0923 (arthritis score, paw weight, spleen weight, body weight) ([3]; Study 2, 500 nmol/kg BIW plus 500-fold molar excess EC0923 (250 μmol/kg))	reducing arthritis scores and paw weights ([3]; Study 2, 500 nmol/kg, BIW, s.c., two consecutive weeks)	decreasing arthritis score, paw weight, and spleen weight ([3]; Study 3, 500 nmol/kg, BIW, two consecutive weeks)	magnitude of aminopterin release ([9]; 37° C.)
N=c1[nH]c(N)nc2ncc(CNc3ccc(C(=O)N[C@@H](CCC(=O)NNC(=O)OCCSSC[C@@H](NC(=O)[C@H](CCC(=O)NC[C@H](O)[C@@H](O)[C@H](O)[C@H](O)CO)NC(=O)[C@@H](CCC(=O)O)NC(=O)[C@H](CCC(=O)NC[C@H](O)[C@@H](O)[C@H](O)[C@H](O)CO)NC(=O)[C@@H](CCC(=O)O)NC(=O)[C@H](CCC(=O)NC[C@H](O)[C@@H](O)[C@H](O)[C@H](O)CO)NC(=O)CC[C@H](NC(=O)c4ccc(NCc5cnc6nc(N)[nH]c(=O)c6n5)cc4)C(=O)O)C(=O)O)C(=O)O)cc3)nc12 [EC1669, reference compound]	broad pH specificity	highest at pH 4.5	maintained a healthier body weight than EC2285	minimal residual diseases	significant anti-arthritic activity	maintained a good body weight	high plasma protein binding	greater from EC1669 than from EC2319	high plasma protein binding	high plasma protein binding	greater from EC1669 than from EC2319	highest at pH 4.5							
COC(=O)[C@H](CSSC(C)(C)[C@H](NC(=O)[C@H](CCC(=O)NC[C@H](O)[C@@H](O)[C@H](O)[C@H](O)CO)NC(=O)[C@H](CCC(=O)O)NC(=O)[C@H](CCC(=O)NC[C@H](O)[C@@H](O)[C@H](O)[C@H](O)CO)NC(=O)[C@H](CCC(=O)O)NC(=O)[C@H](CCC(=O)NC[C@H](O)[C@@H](O)[C@H](O)[C@H](O)CO)NC(=O)CC[C@H](NC(=O)c1ccc(NCc2cnc3nc(N)[nH]c(=O)c3n2)cc1)C(=O)O)C(=O)O)NC(=O)CC[C@H](NC(=O)c1ccc(NCc2cnc3nc(N)nc(N)c3n2)cc1)C(=O)O [EC2319]	broad pH specificity	highest at pH 4.5	maintained a healthier body weight than EC2285	minimal residual diseases	significant anti-arthritic activity	maintained a good body weight	higher plasma protein binding than did EC1669	aminopterin release was observed	higher plasma protein binding than did EC1669	higher plasma protein binding than did EC1669	aminopterin release was observed	highest at pH 4.5	lower than that from EC1669	lower than that from EC1669	as effective as EC1669, EC2285, and EC2318	fully blocked by EC0923	equally efficacious as EC1669 but significantly more active than EC2285	as efficacious as EC1669	lower than that from EC1669
